Measured values: patent publication US20250145690A1 (US Dept. of Health and Human Services, published 2025)
Numbering of substitutions follows the chain as printed.

T1: HCoV-NL63 spike protein (Sino Biological 40604-V08B) (HCoV-NL63, UniProt Q6Q1S2 19-1296)
T1 sequence: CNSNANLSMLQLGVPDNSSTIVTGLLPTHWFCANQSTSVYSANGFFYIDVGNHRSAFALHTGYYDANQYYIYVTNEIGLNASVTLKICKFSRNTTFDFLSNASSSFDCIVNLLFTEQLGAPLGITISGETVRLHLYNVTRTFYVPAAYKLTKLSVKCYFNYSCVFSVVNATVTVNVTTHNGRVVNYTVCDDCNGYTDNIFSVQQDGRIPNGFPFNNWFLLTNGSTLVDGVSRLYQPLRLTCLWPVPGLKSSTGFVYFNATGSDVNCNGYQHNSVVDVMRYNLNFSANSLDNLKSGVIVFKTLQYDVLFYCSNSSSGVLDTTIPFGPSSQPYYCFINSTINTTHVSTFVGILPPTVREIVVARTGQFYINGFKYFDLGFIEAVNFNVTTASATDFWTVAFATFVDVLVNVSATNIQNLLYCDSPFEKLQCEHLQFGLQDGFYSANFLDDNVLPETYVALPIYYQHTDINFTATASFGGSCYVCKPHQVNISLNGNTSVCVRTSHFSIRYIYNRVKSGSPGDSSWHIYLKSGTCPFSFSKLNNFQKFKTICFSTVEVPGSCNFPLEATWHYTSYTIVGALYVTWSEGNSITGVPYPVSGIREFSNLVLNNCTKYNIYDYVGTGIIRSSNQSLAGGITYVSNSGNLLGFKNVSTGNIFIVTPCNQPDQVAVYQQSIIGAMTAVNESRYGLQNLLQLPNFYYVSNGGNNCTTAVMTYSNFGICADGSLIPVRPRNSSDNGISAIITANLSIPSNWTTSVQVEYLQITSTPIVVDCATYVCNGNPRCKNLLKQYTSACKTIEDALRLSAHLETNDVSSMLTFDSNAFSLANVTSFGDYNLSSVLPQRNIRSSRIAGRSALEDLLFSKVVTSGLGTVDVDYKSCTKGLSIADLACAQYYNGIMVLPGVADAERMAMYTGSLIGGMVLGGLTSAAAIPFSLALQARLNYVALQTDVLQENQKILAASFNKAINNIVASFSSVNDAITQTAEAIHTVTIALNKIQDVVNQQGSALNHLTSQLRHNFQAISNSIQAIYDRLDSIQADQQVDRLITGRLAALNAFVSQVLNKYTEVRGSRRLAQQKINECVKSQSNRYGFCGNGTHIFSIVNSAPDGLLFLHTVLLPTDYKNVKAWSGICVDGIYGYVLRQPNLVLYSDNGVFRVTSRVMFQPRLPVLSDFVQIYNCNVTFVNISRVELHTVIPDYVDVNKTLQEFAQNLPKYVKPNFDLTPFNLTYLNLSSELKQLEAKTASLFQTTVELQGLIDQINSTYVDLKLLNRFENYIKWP

B1: COV89-22 (antibody, V domains shown)
VH: QEQLVQSGAEVKKPGASVKVSCKSSGFTFSYFYLHWVRQAPGQGLEWMGIINPRGDGTRYAQKFQGRVTMTRDASTGTLYMELRSLRSEDTAVYYCARGADHGAFDIWGQGTMVTVSS
VL: EIVLTQSPGTLSLSPGERATLSCRASQSVRRNYFAWYQQKRGQAPRLLIYDASTRATGIPDRFSGSGSGTDFTLTISRLEPEDFAVYYCQQYDSSPPMYIFGQGTKLEIK
B2: COV77-05 (antibody, V domains shown)
VH: QMQLHESGPGLVKPSQTLSLTCAVSGGSISSDGYYWNWVRQHPGKGLELIAYIYYNGRPYYNPSLRSRVNISLDTSMNQFSLRMKSLTAADTAVYYCARGRLGYCAGGSCFLESFDYWGQGALVTVSS
VL: EIVMTQSPATLSVSPGETATLSCRASESISSNLAWYQQKPGQAPRLLIYGASTRATGIPARFSGSGSGTEFALTISSLQAEDFAVYSCQQYHNWLLTFGGGTKVEIK
B3: COV77-42 (antibody, V domains shown)
VH: QVYLQESGPGLVKPSQTLSLTCAVSGGSIRSDGYYWTWIRQHPGKGLEWIGNTYYNGNTYYNPSLRSRVTTSLDTSKNQFSLKVVSMTGADTAVYYCARGRLGFCAGGACFLDTLDYWGQGTLVTVSS
VL: EIVMTQSPVTLSVSPGERVTLSCRADQSVNNNLAWYQQKPGQAPRLLIHGASTRATGIPARFSGSGSGTEFTLTISSLQSEDFAIYYCQQYYNWLLTFGGGTKLEIK
B4: COV30-35 (antibody, V domains shown)
VH: QVQLQESGPGQVKPSGTLSLTCAVSGGSINSSNWWSWVRQPPGKGLEWIGEIFHSGNTNYKPSLESRVTISFDKSKKELSLRLTSVTAADTAVYYCATLFCSGGTCYLGDWGQGTLVTVSS
VL: EIVLTQSPGTLSVSPGQRATLSCRASESVSSRYVAWYQQKPGQAPRLIIYGASSRATGIPDRFSGSGSGTEFILSISRLEPEDSAVYYCQQYGSSPTFGGGTKVEIK
B5: COV57-03 (antibody, V domains shown)
VH: QVHLVESGGGVVQPGRSLRLSCAASGFTFSSFGMHWVRQAPGKGLEWVAVISDDGNNKFYADSVKGRFSISRDNSKNTLYLQMNSLRAEDTAVYYCVRAFRNSNWATGEYFDYWGQGTLVTVSS
VL: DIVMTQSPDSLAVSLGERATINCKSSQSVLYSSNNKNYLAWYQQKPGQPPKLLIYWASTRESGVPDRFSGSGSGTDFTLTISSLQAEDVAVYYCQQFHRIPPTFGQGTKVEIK
B6: COV57-04 (antibody, V domains shown)
VH: B5 VH with H3Q, S31N, K58E, D62G, A88P
VL: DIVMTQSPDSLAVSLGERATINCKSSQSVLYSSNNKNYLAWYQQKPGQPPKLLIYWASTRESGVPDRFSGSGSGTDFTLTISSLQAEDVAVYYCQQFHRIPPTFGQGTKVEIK
B7: COV77-04 (antibody, V domains shown)
VH: QVRLQESGPGLVKPSETLSVTCTVSGVSISNYYWSWIRQPPGKGLEWIGYISDTGSTNYSPSLQSRVTISVDMSKNQVSLEVTSVTATDTAVYYCARTTTSVPFDYWGKGVLVTVSS
VL: SYELTQPPSVSVSPGQVARITCSGEALPKKYAYWYQHKPGQFPLLVIHKDSERPSGIPERFSGSSSGTVVTLTISGVQAEDEADYFCLSTDGSTTWVFGGGTKLTVL
B8: COV77-39 (antibody, V domains shown)
VH: RVQLQESGPGLVKPSETLSLTCTVSGGSITDDYWNWIRQPPGKGLEWIGYVHDSGTTNYNPSLKSRVTLSLHTSGNKFSLRLTSVTAADTAMYYCARTTTTFPFDSWGQGTLVIVSS
VL: SYELTQPPSVSVSLGQMARITCSGEALPKKYVYWYQQKPGQFPVLVIYKDRERPSGIPERFSGSSSGTIVTLTISGVQAEDEADYYCLSVDSTANWVFGGGTKLTVL
B9: COV78-36 (antibody, V domains shown)
VH: EVQLVQSGAEVKKPGESLRISCKGSGYSFSNSWITWVRQMPGKGLEWVGRIDTRDSRTAYSPSFEGHVFFSADRSSDTVYVQWRSLRASDTAVYYCTTGAGVVIAASYFWGQGTLVTVSS
VL: QSALTQPPSASGSPGQPVTISCTGTSSDVGGYEYVSWYQQLPGKVPTLIIHEVSKRPSGVPDRFSGSKSGNTASLTVSGLQAEDEADYYCSSYSADSSIIFGGGTKLTVL
B10: COV30-80 (antibody, V domains shown)
VH: QVQLVESGGGVVQPGRSLRLSCAASGFTFSSYAMHWVRQAPGKGLEWVAVISYDGNNAFYADSVKGRFTISRDNSKNTVYVQMDSLRAEETAVYYCARAGYNSNWDLGDALDIWGQGTMVTVSS
VL: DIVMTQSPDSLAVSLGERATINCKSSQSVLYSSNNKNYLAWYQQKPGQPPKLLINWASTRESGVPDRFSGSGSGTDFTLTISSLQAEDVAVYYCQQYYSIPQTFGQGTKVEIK
B11: COV44-25 (antibody, V domains shown)
VH: QVQLVDSGGGAVQPGTSLRLSCAASGFTFNTYAFHWVRQAPGKGLEWVAVISDDGNNKYYADSVKGRFTISRDDSKNTLSLQMDSLRVEDAAVYFCARGSYNSNWSLGEYFDYWGQGSLVTVSS
VL: DIVMTQSPDSLPVSLGERATINCKSSQSVLHSSNNKNYLAWYQQKPGQSPKLLISWASTRESGVPDRFSGSGSGTHFTLTISSLRAEDVAVYYCLQYFNNQYTFGQGTKLEIK
B12: COV44-62 (antibody, V domains shown)
VH: QMQLMQSGAEVKKPGASVTVSCKASGDTFSDYRIHWVRQAPGQGLEWMGRMNPKSGDTNFAQKFQGRVTMTRDMSINTAYMTLSGLTFDDTALYYCASLLIVGGFDPLDDFEVWGQGTMVTISS
VL: QSALTQPPSASGSPGQSVTISCSGTSSDVGGYNFVSWYQHHPGKAPKILIYEVTKRPSGVPDRFSGSKSGNTASLTVSGLQAEDEADYYCSSYGGTNNLLFGGGTKLTVL
B13: COV44-79 (antibody, V domains shown)
VH: QVQLVESGGGVVQPGRSLRLSCAASGLTFSGYAMHWVRQAPGKGLEWVAVISRDARNKYYADSVKGRFTISRDNSKKTVYLEMNSLRVEDTAVYYCAILIIPGITEPGSPDALDIWGQGTMVSVSS
VL: DIQMTQSPSSMSASVGDRVTITCRASQDISKWLAWYQQRPGKAPKLLIYAASSLQSGVPSRFSGSGSGTDFTLTISSLQPEDFATYYCQQASSFPWSITFGQGTRLEIR
B14: COV91-27 (antibody, V domains shown)
VH: QVQLVESGGGVVHPGGSLRLSCAASGFTFSDFAMNWVRQAPGEGLQWVAIISYDGRNKHFAASVRGRFTISRDNSKNTMFLQMSSLRAEDTAIYYCATLGGWFEEASPTYWGRGTLVTVSS
VL: EVVLTQSPAIVSLSPGERATLSCRASQSVGSRLAWHQQKPGLAPRVLIYDASNRATGIPARFSGSGSGTDFTLTISSIEPEDSAVYYCQQRGDWPLITFGQGTRLEIK

target: T1, HCoV-NL63 spike protein (Sino …); assay: bead flow cytometry, AUC minus CD4

| Binder | binding result |
| --- | --- |
| B1 | no binding (tested: 200 µg/mL) |
| B2 | no binding (tested: 200 µg/mL) |
| B3 | no binding (tested: 200 µg/mL) |
| B4 | no binding (tested: 200 µg/mL) |

target: SARS-CoV-2 spike receptor binding domain (RBD), recombinant (SARS-CoV-2, UniProt P0DTC2 319-541); assay: bead flow cytometry, AUC minus CD4

| Binder | binding result |
| --- | --- |
| B5 | no binding (tested: 200 µg/mL) |
| B6 | no binding (tested: 200 µg/mL) |
| B7 | no binding (tested: 200 µg/mL) |
| B2 | no binding (tested: 200 µg/mL) |
| B8 | no binding (tested: 200 µg/mL) |
| B3 | no binding (tested: 200 µg/mL) |
| B9 | no binding (tested: 200 µg/mL) |
| B4 | no binding (tested: 200 µg/mL) |
| B10 | no binding (tested: 200 µg/mL) |
| B11 | no binding (tested: 200 µg/mL) |

target: SARS-CoV-2 spike N-terminal domain (NTD), recombinant (SARS-CoV-2, UniProt P0DTC2 14-305); assay: bead flow cytometry, AUC minus CD4

| Binder | binding result |
| --- | --- |
| B1 | no binding (tested: 200 µg/mL) |
| B12 | no binding (tested: 200 µg/mL) |
| B13 | no binding (tested: 200 µg/mL) |
| B14 | no binding (tested: 200 µg/mL) |
| B5 | no binding (tested: 200 µg/mL) |
| B6 | no binding (tested: 200 µg/mL) |
| B7 | no binding (tested: 200 µg/mL) |
| B2 | no binding (tested: 200 µg/mL) |
| B8 | no binding (tested: 200 µg/mL) |
| B3 | no binding (tested: 200 µg/mL) |
| B9 | no binding (tested: 200 µg/mL) |
| B4 | no binding (tested: 200 µg/mL) |
| B10 | no binding (tested: 200 µg/mL) |
| B11 | no binding (tested: 200 µg/mL) |
